Assay results reported in PMC10397247.

Key:
Core_INNN-es_KEEE = target: T1, Core_INNN-es_KEEE; test: two-hybrid library CCmax; settings: mean of both orientations;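 also: natural log of median RNA to DNA barcode read ratio; higher means stronger binding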
T1 chain: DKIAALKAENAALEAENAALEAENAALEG

4H3364-bN = target: T2, 4H3364-bN; test: two-hybrid library CCNG1;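 also: natural log of median RNA to DNA barcode read ratio; higher means stronger binding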
T2 chain: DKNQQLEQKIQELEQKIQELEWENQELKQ

4H166-bN = target: T3, 4H166-bN; test: two-hybrid library CCNG1;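 also: natural log of median RNA to DNA barcode read ratio; higher means stronger binding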
T3 chain: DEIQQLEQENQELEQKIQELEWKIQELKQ

4H56-bN = target: T4, 4H56-bN; test: two-hybrid library CCNG1;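 also: natural log of median RNA to DNA barcode read ratio; higher means stronger binding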
T4 chain: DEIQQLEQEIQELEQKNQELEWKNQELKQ

4H2444-bN = target: T5, 4H2444-bN; test: two-hybrid library CCNG1;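 also: natural log of median RNA to DNA barcode read ratio; higher means stronger binding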
T5 chain: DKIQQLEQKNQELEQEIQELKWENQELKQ

4H264-bN = target: T6, 4H264-bN; test: two-hybrid library CCNG1;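 also: natural log of median RNA to DNA barcode read ratio; higher means stronger binding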
T6 chain: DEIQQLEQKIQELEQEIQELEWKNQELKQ

4H2233-bN = target: T7, 4H2233-bN; test: two-hybrid library CCNG1
T7 chain: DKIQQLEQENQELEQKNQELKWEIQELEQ

4H2518-bN = target: T8, 4H2518-bN; test: two-hybrid library CCNG1
T8 chain: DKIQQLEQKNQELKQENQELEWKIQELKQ

4H2162-bN = target: T9, 4H2162-bN; test: two-hybrid library CCNG1
T9 chain: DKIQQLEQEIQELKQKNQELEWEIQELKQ

4H2760-bN = target: T10, 4H2760-bN; test: two-hybrid library CCNG1
T10 chain: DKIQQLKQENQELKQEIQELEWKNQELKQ

4H2931-bN = target: T11, 4H2931-bN; test: two-hybrid library CCNG1
T11 chain: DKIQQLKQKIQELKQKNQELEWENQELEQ

4H235-bN = target: T12, 4H235-bN; test: two-hybrid library CCNG1
T12 chain: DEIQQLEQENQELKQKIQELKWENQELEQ

4H730-bN = target: T13, 4H730-bN; test: two-hybrid library CCNG1
T13 chain: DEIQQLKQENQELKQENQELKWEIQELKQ

4H796-bN = target: T14, 4H796-bN; test: two-hybrid library CCNG1
T14 chain: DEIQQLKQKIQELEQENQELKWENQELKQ

4H349-bN = target: T15, 4H349-bN; test: two-hybrid library CCNG1
T15 chain: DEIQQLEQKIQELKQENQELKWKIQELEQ

4H3041-bN = target: T16, 4H3041-bN; test: two-hybrid library CCNG1
T16 chain: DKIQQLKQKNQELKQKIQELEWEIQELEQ

4H3381-bN = target: T17, 4H3381-bN; test: two-hybrid library CCNG1
T17 chain: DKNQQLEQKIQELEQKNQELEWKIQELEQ

4H3297-bN = target: T18, 4H3297-bN; test: two-hybrid library CCNG1
T18 chain: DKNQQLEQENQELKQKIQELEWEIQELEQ

4H2253-bN = target: T19, 4H2253-bN; test: two-hybrid library CCNG1
T19 chain: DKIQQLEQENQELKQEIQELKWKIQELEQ

4H2143-bN = target: T20, 4H2143-bN; test: two-hybrid library CCNG1
T20 chain: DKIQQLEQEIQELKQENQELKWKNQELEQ

4H932-bN = target: T21, 4H932-bN; test: two-hybrid library CCNG1
T21 chain: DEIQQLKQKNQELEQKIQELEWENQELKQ

4H949-bN = target: T22, 4H949-bN; test: two-hybrid library CCNG1
T22 chain: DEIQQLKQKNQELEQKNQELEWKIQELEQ

4H2585-bN = target: T23, 4H2585-bN; test: two-hybrid library CCNG1
T23 chain: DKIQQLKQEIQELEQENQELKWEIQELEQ

4H2859-bN = target: T24, 4H2859-bN; test: two-hybrid library CCNG1
T24 chain: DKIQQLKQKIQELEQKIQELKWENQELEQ

B1: Core_INNN-es_EKKK (peptide)
chain: DEIAALEAKNAALKAKNAALKAKNAALKG
Core_INNN-es_KEEE
  interaction score: 1.79

B2: 4H166-bN (peptide)
chain: DEIQQLEQENQELEQKIQELEWKIQELKQ
4H3364-bN
  interaction score: -0.154
4H166-bN
  interaction score: 0.12
4H56-bN
  interaction score: -0.199
4H2444-bN
  interaction score: 0.231
4H264-bN
  interaction score: 0.717
4H2233-bN
  interaction score: 0.155
4H2518-bN
  interaction score: 1.34
4H2162-bN
  interaction score: 0.326
4H2760-bN
  interaction score: 0.225
4H2931-bN
  interaction score: -0.274
4H235-bN
  interaction score: -0.365
4H730-bN
  interaction score: -0.71
4H796-bN
  interaction score: -1.95
4H349-bN
  interaction score: -0.759
4H3041-bN
  interaction score: 1.6
4H3381-bN
  interaction score: 0.0552
4H3297-bN
  interaction score: 1.54
4H2253-bN
  interaction score: -0.769
4H2143-bN
  interaction score: 0.201
4H932-bN
  interaction score: -0.134
4H949-bN
  interaction score: -0.601
4H2585-bN
  interaction score: -0.823
4H2859-bN
  interaction score: 0.54
